Measured values published in the DeepSol protein solubility set.

Assay: soluble on expression in E. coli; label from the status in PepcDB or PDB records

Sequence	soluble on expression in E. coli
MGSDKIHHHHHHMENIMLQEIELKLAISPQIGIELPQYLAKFTILEHQNLFLGNTYYDYPDHFLAKQKMGLRIRQEDQELTLTLKTNGKVVSGLHSRPEYNLPLIEKETPTNAQLRGLYPFEQLPSSTLQPIFSTDFNRTFWLVEFQQSKIEVAFDQGKIIAGEYEQPISEIEFELKSGNVQDLFDFVETLPFERDIYFSSASKAKRGYLLGSKQFLTDWLNKWRDFLKEEREESAVDFCAKFNAVLKMEQKLLEETLSFSPTLFSQDFMKTVERVGAFFNLYHYYDENGKILEAMATEKQKETRLPALLESNQKIFVEIRDLIRFHSETKDNEKTIEKLTALLKSRVYFERMIKLMELSYDLG	not soluble
MNKVLINDTTLRDGEQAAGVVFTLEEKVAIAKFLDTIGVPELEVGIPAMGEEEMRAICAISNLGLKANLLAWNRAVISDIKASVACGMERVHIAIPVSGIQIAAKFHGQWRVSLQRLKDCISFAVDQGLWVAVGGEDSSRADENFLLDVALYAQEWGASRFRFCDTVGVLDPFTTYGKVKLLVSALTIPVEVHTHNDFGMATANALAGIKAGASSVNTTVIGLGERAGNAALEEVVMAIKRIYGVDMGIDTPRLLELSQLVAAASGANVPPWKAIVGENTFAHESGIHAHGVLQNPDTYEPFAPEEVGWERRLVVGKHSGRHSVSNLLEQHGIFLNPEETQSVLDAVRQQSIKKKRSLTTEELLNLVKEQR	not soluble
MPRYPFRRFGFGALRRLLYLWVRSETINQSAFTLKIDRSKPVLYVLQQPSVSDLAVVDTECRKAGLPRPVMPVAVGDAIEPAAFFYLTPEPDWLGRQDKRGASPTLVRMLAAVGQNGLDDAQIIPVSVFWGQSPDSESSPWKLLFADNWAVTGRLRKLARILILGRKTRVQFSAPIHLRELVEQGKGHERTLRMVNRILRVHFRNLKTAVIGPDLSHRRNLVKGLLRAPLVRQAISEECESERISQEKAEGIALRYANEIASDFSYPVIRFLEVILSWFWNKLYEGVKVNHIERVQDVAQGNEIVYVPCHRSHIDYLLLSYLLFRNGLTPPHIAAGINLNMPVIGSILRRGGAFFMRRSFKGNQLYTAVFNEYLHTLFSRGFSTEYFVEGGRSRTGRMLHPRTGMLAITLRSFLRDSRRPIVFVPVYIGYERVLEGRTYLGELRGATKKKESIFDLFKVVGALKQRFGQVWVNFGEPIHLDQFLDRHQPDWQDQDLGPEYRPDWLPQTTNLLAKDVARHLNDAAAINPVNLVALALLSTSRQALDESALARILDLYLALLRKVPYSPSATLPDGDGQALIEYVKSMNLLAEQKDALGRILYLDEQNAVLATYYRNNVLHVFALPALIASFFQSNSRISREQLLRFARALYPYLQAELFIRWSLDELDAVIDQWLAALVEQDLLRQENDTFIRPAPSSRQYVLLILLARSVTQTLQRFYMAIALLLNAGQNALTAEELENLCTVMAQRLSILHGLNAPEFFDKSLFRHFIQTLLDLRVLRKDEAGKLSYHELLGELAEGAAKRVLPAEIRLSIRQVALERPAEEAAAESN	not soluble
MAADVGQALAFLQQVKTTQGASIYEGLKAALAKVLEDRPVNAVEALETSVLSTPPAANLSVPLVPAASAAAAAAAVAKASLFGDPEPVLDPESGEPIDPDAPNEFECEDVEGDGDLLDGLGVGLGRQEMYAAMLAVKRLGEDAKRGVSTVRFFGKFFGTQADYYVFETTLQSNPDMPEAPEGTIPLEPYGEGVNAYIYFVSNTLGGPLQQLPYVTPEQIKASRLLRRYLTGRLDAPVSAFPAFPGNEANYLRALIARISAATVCCPRGFFTADDDSAELSANDEWVPLKGREMALPVNWSHRYAHLKGQGRTVTHKRDPPDEEEEPEKNFWTAEEMEAGPPPLATLDTDAPLPAATGDKVPPPAWSPVFASASVTTRNQVAGVRSNRWPGAVCACAGRHFTSMYVGWGIKAGGEWSPCPPPPPVPQWGAPAAGVEGGQQLLLECNDLPPKPAPPEEEDE	not soluble
MGSDKIHHHHHHMTKKKIGIGFGTWAWGNKLVWDYKAETDDILLKKTFFDAINGGLDLIDSADSYGTGSLFGQSEKLIGDFLEELPKRKLKKVTIATKLAPFPWRIGRNGLDNAFQESNQRLKGNMTRVQLHWSTYRYAPWQEEQLLNGLGDLYEEGLIKEIGLSNTGPKRLNFLFQKLKKRGIKIKSIQMQLSLLTKPSLEDENIKIICDENEIEYLAYSPLGLGILTVPPNQSPKPTTFLRKSLYQRILPKTIELRTLLTHIGKKYSASQAEVALNWVRSHGAKPIVGIRNPNQAKDAISALNWSLTKSEKQKLDFCRNACLANMPLNPFTSP	not soluble
MGSDKIHHHHHHMSSDPTSGAAITVEGLKKVFRIYERPRDRILQLILPGKRKFYREFQALDDVSFTVQKGQAVGIIGRNGSGKSTLLQMICGILHPTAGKVSCSGRVAALLELGAGFNPDFTGRENVYMNATLLGLTTAAVDERMDDILAFAEIGDFIDHPVKTYSSGMFVRLAFAVMAHVDAEILIIDEALAVGDAAFGQKCMRFLRRFRETGTILFVSHDTAAVIGLCDRAVWLDRGKMIIEGDAKTVCEAYYGHLFGGTVETPPEKTVEAITPSPAPEGPRPKVRAEDWVDGRREWINHSSLRNDIEVFTFDPSGTDFGAGGAEIEDVRLTDDDGHPYAWIVGGEPTRLRVTVRVRDELRSPIIGFFVKDRLGQTLFGDNTFMNEKKLSKPALPGQILEANFRFPMPILPPGTYSIAVAVADGTQTDHVQHHWLHDAVMVKSHVSHATAGLVGIPMFEVRFECHDPVASPSSSMDKVGIVD	not soluble
MGSDKIHHHHHHMINTALRLAAPEIEAFLQGRIIAAMPNKFITPGREFALCPSDASINLLPVEQYYRSSFLPIAQSAFAQLNIQGVLIQPQQMNLLIDEEQLKLPILAYETVLIKTWAKCELCQIINNTESFAALSQLTIWTTEALKEILRQKQNIFLAYLRVYELPKSIEVPIKSNSQFVALSQPLNVSEDKPVLKDRTFAQRKHQLEKLQPPLHPELEELQSAIASLSISQPAAKQLDDDIKVFLGWSSDKLTNPLDSDLPWIQNIAKVGNSSDGHTFEKLVRRGLLKLGFTGSGLNPDATGGAGGMDFYAEQPYPIVGECKATKTEKVTDGTPAQLLKIGMNHLGKFQYDNSIKLIVAAGELNFYALRTATENQMNIVSPETLQKLVELQAHYKNSINLLDLSGNKRE	not soluble
RTRKGIELIPLDQVIYFIADHKYVTLRHEGGEVLLDEPLKALEDEFGDRFVRIHRNALVARKRIESMKRTPVGHFELFLRGLNGDALIVSRRHVAGVRKMMQQL	not soluble
MGSDKIHHHHHHMVKSNICGGSTMTQTLPKLVTFEQFIEWYPSNGARYELHKGVIVEMPPPSGEHENVVGFLAAQITLQFLQMGLPFCIPKTAFVKIQSNNSTYSPDILLLNHDNLVNEPLWSKQSTVIQAASIPLAVEVVSQCVARVPRVEATDEPVRVSTNWRDDYYDKFRDYEEMGIPEYWIVDYAAIGGKRFTGNPKQKTITICELVEGDYQMTVFRENNFVVSPLFPQLNLTAQQIFDSAL	not soluble
MIKWGFIGCGEVTKTKSGPAFQKVEHSEVVAVMSRDGAKAKAYAKERGIRKWYDDAQELIDDPEVNAIYIATPPSSHATYAIMAMKAGKPAYIEKPMAVTYEECTRINRISKETGVPCFVAYYRRYLPYFQKVKEMVENGSIGNVINVQVRFAQPPRDLDYNRENLPWRVQADIAGGGYFYDLAPHQIDLLQDMFGCILEASGYKSNRGGLYPAEDTLSACFQFDNGLVGSGSWCFVAHDSAREDRIEIIGDKGMICFSVFTYEPIGLHTERGREEICIGNPEHVQQPLIQAVVDHLLGKSVCSCDGESATLTNWVMDKILGKL	not soluble
MGYLKNHWWKRWIRRRGCKLAGGPASVGKRTTLVLEERVELGHLRIVPPRLEIGAYSYVRSGTDLSLVASIGRFCSIGSDCFIGQEKHTHPSDWVSSHPFQHTGTALRYEPALSYAEIGHDVWIGHSAMVMEGVKVGTGAIIATRAVVTRDVPPYAIVAGTPAQVIRYRHPPEIIEGLLASRWWELDSAFLTGLPLDRPREFLAALEAREAPRAAYRRMTITRQGCRLD	not soluble
MGSDKIHHHHHHMVKIAVLGLGRVGLRAAYNLASRGFDVLGLDASNDAVSRARSLGLEARLYDVEGRKAGEYLRGQRVVAAFIALPYPVASRAVAHLSSAGIPVVVASIKPLRIDPGVVRAPILTEVGVSPGLSNVILYSMAAETGGGVSARVYVGSFGAREDGLLSHASTWRVEEMLEQYVTPAKLIQDGSEAVADPLDPSLWMEYSDPEHGVLECFPSQGLAGFISRRGSLFKELMECSLRRRGHLKVVLTMRGLGLLDSTPLKVSGCIVRPFDMAVKLVETRYPPDVGDVAVFTVEARRGGRWETLARASLRHGGGWSASSKMVGGASSAFAEVFAAEGLSEEEPGIIYPEDLYELGLAEKLLSLLPSHGVSLEVG	not soluble
MNINPFANVSLQDYLEIVQIVDSTFPIGSFNHSFGMENYLREDTVTDDKGYEEWQEAYLASQFKYGEGLVIKLVYDAMVTDNIDQVWYYDKVLTVSTQARETRQGTKMIAKQMLRLIQRLHAIPVLDDYQSKIRKGVAFGNPAIVFALYVFNKGLGCNEAIALYGYSVISTMVQNAVRAIPLGQFAGQEIVLRSFSQLEKMTQEIQELDASYLGANTPGLELAQMKHETQVFRLFMSLEHHHHHH	not soluble
MTKPAPTPLYNEFTFFLKKYFSYKVQKISLNAGFTCPNRDGTKGLGGCTYCNNQTFNPEYCKTEKSVTRQLEEGKQFFAHKYPDMKYLAYFQAYTNTYAELEGLKGKYEEALSVDGVVGLVIGTRPDCMPDPLLRYLEELNKHTFLLVEYGIETTRDVTLKRINRGHTYADTVETVNRTAACGILTGGHVILGLPGETHDEIIAQAAELSRLPLTTLKMHQLQLIRGTKMAREFECRPEDFHLFSVDEYIDLVIDYVEHLRPDLILERFVSQSPKELLIAPDWGLKNYEFTARVQKRMKERGAYQGKAYLV	not soluble
MGSDKIHHHHHHMGGIWMSSAKTLEEVISKISGVISAKVIEEDGQPREIHVIADPSRNPKQIVRDIETVALASLGMKIDRRIISVAQLSQGRFPSSQTYEITSIEVKNLDRKKQVKVTIHNPLEDEDMVGESAGPGTSTNLPRLVGEAVIEAFNPDCPVSVDDVQKVFLAGREFVLVHLTIQDEDRERTEVGVAPLEGDFLKSVATATLKVVKDLT	not soluble
MGSDKIHHHHHHMNFKEALEGIKLVLESKAVPLLVGESGIGKTSLVKKLSKDEEYYYINIDGNLLKEGEIGGLPVVQDYGDEKSLIKKTVYAAYYKFIKIDEILKNNPNQKVLLFIDEINRCEHSVQQEIMNIILNREINGYKLKDNITVIAAMNPSSKYDEFEESDYQVNDMDPAQEDRFVWIYLESDVNNWIEWGHERINGESRIHEDILGFIASFPEYLSTPNSKESIKATPRSWERVSNIYKAYIKKKTKVSRNIFYNLIRGNVGTSIAQDFINYIDESKSPLLTPEDIFANDCISEDIKDRIRKESHSRLFLSAKNILFYLENKEDRSREVEIFSEFLSLYPNDLKLGIMQNIKSDSSKKLYKEFLENTSFLENFFLMYEGIED	not soluble
MTDIETIYKKLSHVISKEDFLQRIQEKVENMGGLCDETMAAMLVANELGFSDAGRDSIKIENITPESGPVNFIARIISVFDTKEFTRNDGTIGRVGNLIVGDETGKVKLTLWDNMADLIKMGKIKAGQSVQVSGFAKQGYSGVEVNIGNNGVLTESEEEIDVVSNSYKIKDIKDGMGDINLNGKVLEVSEIRTFQRKDGNSGRVGNLMLGDETGTLRVTLWDDKTDFLSQVEYGDSIELINAYARENAFSQKVELQVGNRSIIRKSEKKIEYEEEFTPIDDIKADMNNINISGRILDISEVRTFEKKDGSTGRVGNVLLGDSTGKIRLTLWDEKTDILEEIDFDETVEVLNAYSRENTFSQQVELNLGARGIIQRSEKKVEYREKFTDIADIIPGESYSIQGKVAEIGELREFEKEDGTENVVANLQLKDDTGSIRLTLWGEQAYVIEDLDIDSEIQIIDAYARYGLNEEIELSVGNRSRVIILLEHHHHHH	soluble
